The results in this text go back to the supplement of paper PMC7125110.

The labels stand for the following.
B1: glmS ribozyme (parent)
chain: AUAAAAGCGCCAGAACUACAGAAAUGUAGUUGACGAGGAGGAGGUUUAUCGAAUUUUCGGCGGAUGCCUCCAAA

Holding throughout (details): with glucosamine-6-phosphate
Variants of B1 are the subject of series [1]. Put plainly: kcat; higher = faster cleavage; RNA array. In outline:
(§1)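 Glucosamine-6-phosphate, from 40 μM to 10 mM in HEPES/KCl/Mg(OAc)2 buffer, was flowed over sequenced MiSeq chips carrying barcoded ribozyme variants transcribed in situ by E. coli RNA polymerase. A hybridised Cy3 probe tracked the variants at 37 °C as tiles were imaged over ~14 h. kobs, kcat and KM were obtained by fitting normalised per-tile medians to exponential decays and then applying weighted Michaelis–Menten fits across concentrations.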

Series [2] covers variants of B1. In words: KM; higher = weaker cofactor use; RNA array. In outline: as §1
In series [3] the parent is B1. Put plainly: self-cleavage kobs at 40 uM GlcN6P; higher = faster cleavage; RNA array. In outline: as §1
Series [4] covers variants of B1. In words: self-cleavage kobs at 640 uM GlcN6P; higher = faster cleavage; RNA array. In outline: as §1
Variants of B1 are the subject of series [5]. Put plainly: self-cleavage kobs at 2500 uM GlcN6P; higher = faster cleavage; RNA array. In outline: as §1
Series [6] covers variants of B1. Put plainly: self-cleavage kobs at 10000 uM GlcN6P; higher = faster cleavage; RNA array. In outline:
as §1

The variants in series [7] derive from B1. Put plainly: self-cleavage kobs at 160 uM GlcN6P; higher = faster cleavage; RNA array. In outline: as §1

± gives the standard error. For part of these data: Variants at the floor of the assay were thinned out.

Broadly, the kcat is the maximal rate divided by the concentration of active sites. For orientation: KM means the concentration of substrate that gives half-maximal velocity.

As for C16U A52U, in series [1], the kcat came to 0.00041 ± 1.4e-05 s⁻¹. Also, the KM in series [2] amounted to 5030 ± 320 µM. The “self-cleavage kobs at 40 uM GlcN6P” value in series [3] was less than 1e-05 s⁻¹. Besides, in series [4], the “self-cleavage kobs at 640 uM GlcN6P” value was 4.82e-05 ± 1.2e-05 s⁻¹. For the same variant, the “self-cleavage kobs at 2500 uM GlcN6P” value in series [5] amounted to 0.000132 ± 2.2e-05 s⁻¹. Besides, the “self-cleavage kobs at 10000 uM GlcN6P” value in series [6] is 0.000274 ± 2.9e-05 s⁻¹.
Take G32C U54G: the kcat in series [1] was 9.47e-05 ± 8e-06 s⁻¹. For the same variant, the KM in series [2] worked out at 2550 ± 810 µM. Besides, the “self-cleavage kobs at 2500 uM GlcN6P” value in series [5] turned out to be 5.12e-05 ± 1.5e-05 s⁻¹. Further, in series [6], the “self-cleavage kobs at 10000 uM GlcN6P” value amounted to 7.5e-05 ± 8.5e-06 s⁻¹.
On to U46A G62A, for which, in series [1], the kcat is less than 1e-05 s⁻¹. Also, the “self-cleavage kobs at 40 uM GlcN6P” value in series [3] was less than 1e-05 s⁻¹. Besides, the “self-cleavage kobs at 2500 uM GlcN6P” value in series [5] is less than 1e-05 s⁻¹.
For U30C G37A, in series [1], the kcat came out at 2.63e-05 ± 1.2e-06 s⁻¹. For the same variant, the KM in series [2] was 710 ± 290 µM. Also, in series [6], the “self-cleavage kobs at 10000 uM GlcN6P” value was determined as 2.44e-05 ± 9e-06 s⁻¹.
As for G13A A15U, the kcat in series [1] turned out to be 0.00015 ± 1.5e-05 s⁻¹. Besides, the KM in series [2] is 3530 ± 1100 µM. In addition, the “self-cleavage kobs at 2500 uM GlcN6P” value in series [5] is 6.03e-05 ± 2.6e-05 s⁻¹. The “self-cleavage kobs at 10000 uM GlcN6P” value in series [6] amounted to 0.000111 ± 1.5e-05 s⁻¹.
A33G C71A: the kcat in series [1] is less than 1e-05 s⁻¹. For the same variant, the “self-cleavage kobs at 40 uM GlcN6P” value in series [3] is less than 1e-05 s⁻¹. The “self-cleavage kobs at 160 uM GlcN6P” value in series [7] was less than 1e-05 s⁻¹. Further, the “self-cleavage kobs at 10000 uM GlcN6P” value in series [6] was less than 1e-05 s⁻¹.
In the case of G43U U56C, in series [1], the kcat was less than 1e-05 s⁻¹. The “self-cleavage kobs at 160 uM GlcN6P” value in series [7] was less than 1e-05 s⁻¹. Further, the “self-cleavage kobs at 2500 uM GlcN6P” value in series [5] was less than 1e-05 s⁻¹.
As for C10G G37U, the kcat in series [1] was less than 1e-05 s⁻¹.
A6C U65G: in series [1], the kcat was found to be 2.87e-05 ± 1.5e-06 s⁻¹. Also, in series [2], the KM came to 342 ± 150 µM. Besides, the “self-cleavage kobs at 10000 uM GlcN6P” value in series [6] turned out to be 2.71e-05 ± 1.1e-05 s⁻¹.
For A12G U54G, the kcat in series [1] was determined as 0.000855 ± 0.00011 s⁻¹. In addition, the KM in series [2] was determined as 2260 ± 460 µM. In series [7], the “self-cleavage kobs at 160 uM GlcN6P” value is 6.55e-05 ± 1.5e-05 s⁻¹. In addition, in series [4], the “self-cleavage kobs at 640 uM GlcN6P” value came out at 0.000179 ± 2.1e-05 s⁻¹. In addition, in series [5], the “self-cleavage kobs at 2500 uM GlcN6P” value was found to be 0.000475 ± 5.8e-05 s⁻¹. The “self-cleavage kobs at 10000 uM GlcN6P” value in series [6] was 0.00064 ± 0.00017 s⁻¹.
Consider A33U U55C C61A, for which the kcat in series [1] was found to be 1.69e-05 ± 5.1e-06 s⁻¹.
Turning to A6U A14U, the turnover number (kcat) in series [1] worked out at 4.98e-05 ± 1.9e-06 s⁻¹. Moreover, the Michaelis constant (KM) in series [2] worked out at 310 ± 92 µM. Also, in series [4], the “self-cleavage kobs at 640 uM GlcN6P” value is 3.6e-05 ± 1.2e-05 s⁻¹. The “self-cleavage kobs at 2500 uM GlcN6P” value in series [5] was 4.51e-05 ± 1.4e-05 s⁻¹. For the same variant, the “self-cleavage kobs at 10000 uM GlcN6P” value in series [6] stood at 4.79e-05 ± 6.3e-06 s⁻¹.
On to A15U U47A, for which the turnover number (kcat) in series [1] stood at 0.00433 ± 0.0014 s⁻¹. In addition, the KM in series [2] came out at 1960 ± 890 µM. Also, the “self-cleavage kobs at 40 uM GlcN6P” value in series [3] came to 0.00015 ± 3.6e-05 s⁻¹. In addition, the “self-cleavage kobs at 160 uM GlcN6P” value in series [7] was determined as 0.000273 ± 6.7e-05 s⁻¹. For the same variant, the “self-cleavage kobs at 640 uM GlcN6P” value in series [4] is 0.000846 ± 0.00036 s⁻¹. For the same variant, the “self-cleavage kobs at 2500 uM GlcN6P” value in series [5] was 0.00263 ± 0.00057 s⁻¹. Besides, the “self-cleavage kobs at 10000 uM GlcN6P” value in series [6] came to 0.00356 ± 0.0009 s⁻¹.
As for G7U C67U, in series [1], the kcat was less than 1e-05 s⁻¹. The “self-cleavage kobs at 40 uM GlcN6P” value in series [3] is less than 1e-05 s⁻¹. Also, the “self-cleavage kobs at 160 uM GlcN6P” value in series [7] is less than 1e-05 s⁻¹. Besides, the “self-cleavage kobs at 2500 uM GlcN6P” value in series [5] was less than 1e-05 s⁻¹.
As for G60U G66C, in series [1], the kcat is less than 1e-05 s⁻¹. For the same variant, in series [6], the “self-cleavage kobs at 10000 uM GlcN6P” value was less than 1e-05 s⁻¹.
Take C68G C70U: the kcat in series [1] came out at 2.04e-05 ± 6.3e-06 s⁻¹. The “self-cleavage kobs at 640 uM GlcN6P” value in series [4] is 3.32e-05 ± 1.3e-05 s⁻¹.
On to U30A G41A, for which, in series [1], the kcat was 0.000441 ± 3.4e-05 s⁻¹. Further, the KM in series [2] is 6390 ± 730 µM. In addition, in series [4], the “self-cleavage kobs at 640 uM GlcN6P” value is 3.92e-05 ± 1.2e-05 s⁻¹. In series [5], the “self-cleavage kobs at 2500 uM GlcN6P” value came to 0.000127 ± 2.3e-05 s⁻¹. Besides, the “self-cleavage kobs at 10000 uM GlcN6P” value in series [6] is 0.000265 ± 5.7e-05 s⁻¹.
The like results for A52G G66U were, in that order, 0.00018 ± 2.4e-05 s⁻¹, 4030 ± 1300 µM, 2.89e-05 ± 1.1e-05 s⁻¹, 6.2e-05 ± 1.6e-05 s⁻¹ and 0.00013 ± 1.5e-05 s⁻¹.
For the variant A64G U65G G66U C70G, the kcat in series [1] is 2.23e-05 ± 6.3e-06 s⁻¹.
Regarding A6U A36C G38A A52U, in series [1], the kcat was determined as 1.37e-05 ± 2.9e-06 s⁻¹. The “self-cleavage kobs at 640 uM GlcN6P” value in series [4] is less than 1e-05 s⁻¹. In addition, in series [6], the “self-cleavage kobs at 10000 uM GlcN6P” value is less than 1e-05 s⁻¹.
